The values below come from patent publication US20040053357A1 (ICAGEN, published 2004).

The target of this test is T1, Kv2.2 (UniProt Q92953 1-911, limits assumed).
T1 sequence (looked up): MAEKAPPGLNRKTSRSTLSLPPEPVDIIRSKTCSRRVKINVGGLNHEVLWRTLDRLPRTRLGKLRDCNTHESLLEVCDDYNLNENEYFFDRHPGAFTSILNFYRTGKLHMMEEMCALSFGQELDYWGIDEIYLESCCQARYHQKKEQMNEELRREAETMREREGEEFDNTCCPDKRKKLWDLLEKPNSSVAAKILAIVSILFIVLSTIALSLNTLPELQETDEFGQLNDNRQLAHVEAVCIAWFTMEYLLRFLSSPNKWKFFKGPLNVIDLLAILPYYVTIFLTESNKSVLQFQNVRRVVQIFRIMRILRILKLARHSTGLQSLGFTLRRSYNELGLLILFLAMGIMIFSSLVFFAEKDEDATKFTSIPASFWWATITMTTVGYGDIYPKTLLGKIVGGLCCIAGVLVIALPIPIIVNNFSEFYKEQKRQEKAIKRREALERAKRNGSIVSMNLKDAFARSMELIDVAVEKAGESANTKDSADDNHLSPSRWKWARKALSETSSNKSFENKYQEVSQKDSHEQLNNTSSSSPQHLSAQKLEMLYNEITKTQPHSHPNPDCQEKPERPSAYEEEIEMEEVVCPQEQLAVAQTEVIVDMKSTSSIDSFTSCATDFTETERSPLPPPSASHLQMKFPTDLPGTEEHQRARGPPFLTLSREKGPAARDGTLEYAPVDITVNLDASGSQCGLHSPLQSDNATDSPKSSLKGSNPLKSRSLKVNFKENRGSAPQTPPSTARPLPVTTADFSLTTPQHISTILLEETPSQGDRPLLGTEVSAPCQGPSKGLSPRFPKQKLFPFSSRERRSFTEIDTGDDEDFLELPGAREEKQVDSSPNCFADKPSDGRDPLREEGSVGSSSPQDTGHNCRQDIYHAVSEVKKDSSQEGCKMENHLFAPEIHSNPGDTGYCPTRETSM
Briefly: cell-based or functional assay.

B1: human Kv10.1 (other)
chain: MLKQSERRRSWSYRPWNTTENEGSQHRRSICSLGARSGSQASIHGWTEGNYNYYIEEDEDGEEEDQWKDDLAEEDQQAGEVTTAKPEGPSDPPALLSTLNVNVGGHSYQLDYCELAGFPKTRLGRLATSTSRSRQLSLCDDYEEQTDEYFFDRDPAVFQLVYNFYLSGVLLVLDGLCPRRFLEELGYWGVRLKYTPRCCRICFEERRDELSERLKIQHELRAQAQVEEAEELFRDMRFYGPQRRRLWNLMEKPFSSVAAKAIGVASSTFVLVSVVALALNTVEEMQQHSGQGEGGPDLRPILEHVEMLCMGFFTLEYLLRLASTPDLRRFARSALNLVDLVAILPLYLQLLLECFTGEGHQRGQTVGSVGKVGQVLRVMRLMRIFRILKLARHSTGLRAFGFTLRQCYQQVGCLLLFIAMGIFTFSAAVYSVEHDVPSTNFTTIPHSWWWAAVSISTVGYGDMYPETHLGRFFAFLCIAFGIILNGMPISILYNKFSDYYSKLKAYEYTTIRRERGEVNFMQRARKKIAECLLGSNPQLTPRQEN
For the molecule B1, the “rate of activation at 0 mV” value was approximately 2 fold.
